# Laboratory results taken from article PMC9456187, “The Ambivalence of Connexin43 Gap Peptides in Cardioprotection of the Isolated Heart against Ischemic Injury” (International Journal of Molecular Sciences, 2022).
# Legend:
# [1] = biological target: RadA-EL1 (extracellular loop 1 of connexin43 grafted into the monomeric ATPase domain of Pyrococcus furiosus … (Pyrococcus furiosus | , Only the grafted connexin43 EL1 loop (the binding part) is given. It was displayed on the His-tagged monomeric RadA ATPase domain of Pyrococcus furiosus, treated here as a carrier. The scaffold limits)); experiment: SPR; Biacore T200; his-tagged RadA-EL1 captured on NTA surface (about 200 RU) as ligand, Gap27 injected as analyte at 30 µL/min; 25 °C; 50 mM HEPES pH 7.5, 500 mM NaCl, 0.005% Tween-20; reference channel without nickel; 1:1 binding model; details: both partners purified
# Chain of RadA-EL1 (extracellular loop 1 of connexin43 grafted into the monomeric ATPase domain of Pyrococcus furiosus … (Pyrococcus furiosus | , Only the grafted connexin43 EL1 loop (the binding part) is given. It was displayed on the His-tagged monomeric RadA ATPase domain of Pyrococcus furiosus, treated here as a carrier. The scaffold limits)) (chain, as listed by the source): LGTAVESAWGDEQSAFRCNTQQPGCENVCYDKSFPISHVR
# [2] = biological target: RadA-EL2 (extracellular loop 2 of connexin43 grafted into the monomeric ATPase domain of Pyrococcus furiosus … (Pyrococcus furiosus | , Only the grafted connexin43 EL2 loop (the binding part) is given. It was displayed on the His-tagged monomeric RadA ATPase domain of Pyrococcus furiosus, treated here as a carrier. The scaffold limits)); experiment: SPR; Biacore T200; his-tagged RadA-EL2 captured on NTA surface (about 200 RU) as ligand, Gap26 injected as analyte at 30 µL/min; 30 °C; 50 mM HEPES pH 7.5, 500 mM NaCl, 0.005% Tween-20, 0.1 mM TCEP; reference channel without nickel; 1:1 binding model; details: both partners purified
# Chain of RadA-EL2 (extracellular loop 2 of connexin43 grafted into the monomeric ATPase domain of Pyrococcus furiosus … (Pyrococcus furiosus | , Only the grafted connexin43 EL2 loop (the binding part) is given. It was displayed on the His-tagged monomeric RadA ATPase domain of Pyrococcus furiosus, treated here as a carrier. The scaffold limits)) (chain, as listed by the source): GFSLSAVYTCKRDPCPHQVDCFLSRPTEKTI
Kd [1],koff [1],Kd [2],koff [2],Binder
6 µM,0.061 s⁻¹,,,"SRPTEKTIFII (connexin43 mimetic peptide, 11 amino acids, analogue of the second extracellular loop (EL2) of connexin43; The peptide was tested on the RadA-EL1 construct; also called G27; connexin mimetic peptide Gap27; source: bought: Pepnome Inc., Hong Kong (peptide)) [Gap27]"
,,8 µM,0.0043 s⁻¹,"VCYDKSFPISHVR (connexin43 mimetic peptide, 13 amino acids, analogue of the first extracellular loop (EL1) of connexin43; The peptide was tested on the RadA-EL2 construct; also called G26; connexin mimetic peptide Gap26; source: bought: Pepnome Inc., Hong Kong (peptide)) [Gap26]"
